Source: patent publication US20040120954A1, “Regulation of mt1-mmp activity” (priority 2000, published 2004)

Experiments:
MT1-MMP [1] = assay: In situ gelatin degrading assay (DQ gelatin or Alexa488-conjugated gelatin); assay type: cell-based, human; conditions: DQ gelatin; CHO-K1 (FIG. 13) or COS1 cells (FIG. 22)
Protocol: (§1) Two different in situ gelatin degrading assays were performed. One used DQ™ gelatin (Molecular Probes, Inc., OR, USA). DQ gelatin is a fluorescence-quenched gelatin substrate, and will fluoresce upon proteolytic cleavage. Glass cover slips were coated with 5% DQ™ gelatin in a 10 mg/ml unlabeled gelatin solution, and dried. Transfected cells were cultured on the cover slip in a humidified chamber for 16 hrs. The cells were then fixed with 3% para-formaldehyde and the degraded areas were visualized as those showing fluorescence.
(§2) The other assay used Alexa488-conjugated gelatin made with an Alexa488-labeling kit (Molecular Probes). The bottom surfaces of 4-well chamber slides (Nunc) were coated with Alexa488-conjugated gelatin according to the method of Yana, I. and Weiss, S. J., Mol. Biol. Cell, 11, 2387-2401, 2000. Transfected COS1 cells were cultured in the chamber slides for 16 hrs in a humidified culture incubator. The cells were then fixed with 3% para-formaldehyde in PBS, and the degraded area was analyzed under a fluorescence microscope. The degraded area was visualized as a dark, non-fluorescent area. Fluorescence images were analyzed using confocal microscopy (BioRad).
(§3) Next, to determine if MT1PEX-F affects the catalytic activity of MT1-MMP on the cell surface or not, tests for gelatin degrading activity and binding capacity to TIMP-2 were conducted using cells transfected in the same incubator. As shown in FIGS. 12 through 14, CHO-K1 cells were transfected with an expression vector for MT1-F, MT1-F/MT1PEX-F or MT1Cat-F, or a vector alone (Mock). The cells were then treated with trypsin, and separately seeded to: DQ™ gelatin-coated cover slips for testing the proteolytic activity (FIG. 13); and 24-well plates for TIMP-2 binding assay (FIG. 12) and for the activation of proMMP-2 (FIG. 14). Transfected cells on the DQ™ gelatin-coated cover slip as shown in FIG. 13 were incubated in a medium at 37° C. for 18 hrs, and the generated fluorescence was analyzed using confocal microscopy. Transfected cells on the 24-well plate as shown in FIG. 12 were incubated with 25 nM ^125I-labeled TIMP-2 in the presence or absence of BB-94 (50 μM) at 0° C. for 1 hr. MT1-MMP specific binding was calculated by subtracting the datum obtained in the presence of BB-94 (50 μM) from each datum derived from the corresponding experiments. Identically transfected cells on the 24-well plate as shown in FIG. 14 were subjected to the reaction with purified proMMP-2 in a serum-free medium at 37° C. for 18 hrs. The cells and culture supernatants were respectively subjected to Western blotting analysis using a monoclonal anti-FLAG M2 antibody, and gelatin zymography analysis. […] DQ™ gelatin is a fluorescence-quenched gelatin, which fluoresces upon proteolytic cleavage. […]

proMMP-2 = biological target: T1, proMMP-2 (Homo sapiens, UniProt P08253); assay: ProMMP-2 binding assay on transfected COS1 cells; assay type: cell-based; conditions: COS1 cells co-transfected with MT1-MMP (FIG. 29)
T1 construct: made in house; host or cells: HighFive insect cells infected with recombinant baculovirus; purified from culture supernatant
T1 sequence (P08253 30-660 limits assumed): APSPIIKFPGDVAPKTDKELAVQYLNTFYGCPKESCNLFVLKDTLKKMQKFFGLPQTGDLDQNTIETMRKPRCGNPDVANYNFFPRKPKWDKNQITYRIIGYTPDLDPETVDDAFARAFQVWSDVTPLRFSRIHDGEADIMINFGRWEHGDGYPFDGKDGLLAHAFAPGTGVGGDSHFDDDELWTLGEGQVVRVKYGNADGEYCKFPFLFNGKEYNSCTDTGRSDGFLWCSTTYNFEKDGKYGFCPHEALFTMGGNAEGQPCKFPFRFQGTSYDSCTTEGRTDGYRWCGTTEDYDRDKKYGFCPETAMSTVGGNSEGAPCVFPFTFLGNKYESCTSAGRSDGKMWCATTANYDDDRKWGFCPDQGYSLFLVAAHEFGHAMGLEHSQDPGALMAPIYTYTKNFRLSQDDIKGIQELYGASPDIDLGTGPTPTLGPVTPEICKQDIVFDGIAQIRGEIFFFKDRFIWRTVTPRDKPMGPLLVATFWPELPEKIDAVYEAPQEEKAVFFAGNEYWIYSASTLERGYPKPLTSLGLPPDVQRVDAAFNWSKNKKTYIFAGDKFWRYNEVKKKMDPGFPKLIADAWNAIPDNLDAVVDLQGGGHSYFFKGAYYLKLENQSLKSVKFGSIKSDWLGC
Protocol: Transfected COS1 cells were cultured in a 24-well plate (0.2×10^4/well). Forty-eight hours after transfection, the cells were washed three times with serum-free DMEM, and incubated with purified proMMP-2 (2 μg/ml) in the serum-free DMEM at 25° C. for 1 hr. The cells were then washed three times with serum-free DMEM containing 5% dimethyl sulfoxide (DMSO) to remove free proMMP-2, and lysed in 50 μl of a non-reducing SDS-loading buffer. MMP-2 bound to the cells was analyzed by gelatin zymography.

MT1-MMP [2] = biological target: T2, MT1-MMP (Homo sapiens, UniProt P50281); assay: In situ gelatin degrading assay (DQ gelatin or Alexa488-conjugated gelatin); assay type: cell-based; conditions: COS1 cells co-transfected with MT1-MMP, Alexa488-labeled gelatin (FIG. 30)
T2 construct: expressed in transfected cells
Protocol: as §1, §2, §3

Substance	gelatin degrading (proteolytic) activity of cells expressing the mutant (MT1-MMP [1])	effect on proMMP-2 binding to the cell surface (proMMP-2)	effect on the proteolytic activity of MT1-MMP on the cell surface (MT1-MMP [2])
MT1Cat-F: PEX-deleted FLAG-tagged MT1-MMP (Δ Ile318-Gly535)	exhibited the gelatin degrading activity		
MT1PEX-F: Catalytic domain-deleted FLAG-tagged MT1-MMP (Δ Tyr112-Pro312), expressed by transfection		not affected	did not affect the proteolytic activity
